# Assay results reported in PMC2955198 (Cell, 2010).
# Several values for one entry are separate records, joined by “and”; a condition that tells them apart may be missing. Equal values may be shown once.
# T1: Dsn1 (subunit of the purified MIND complex) (S. cerevisiae, UniProt P40568 1-576)
# T1 sequence (looked up): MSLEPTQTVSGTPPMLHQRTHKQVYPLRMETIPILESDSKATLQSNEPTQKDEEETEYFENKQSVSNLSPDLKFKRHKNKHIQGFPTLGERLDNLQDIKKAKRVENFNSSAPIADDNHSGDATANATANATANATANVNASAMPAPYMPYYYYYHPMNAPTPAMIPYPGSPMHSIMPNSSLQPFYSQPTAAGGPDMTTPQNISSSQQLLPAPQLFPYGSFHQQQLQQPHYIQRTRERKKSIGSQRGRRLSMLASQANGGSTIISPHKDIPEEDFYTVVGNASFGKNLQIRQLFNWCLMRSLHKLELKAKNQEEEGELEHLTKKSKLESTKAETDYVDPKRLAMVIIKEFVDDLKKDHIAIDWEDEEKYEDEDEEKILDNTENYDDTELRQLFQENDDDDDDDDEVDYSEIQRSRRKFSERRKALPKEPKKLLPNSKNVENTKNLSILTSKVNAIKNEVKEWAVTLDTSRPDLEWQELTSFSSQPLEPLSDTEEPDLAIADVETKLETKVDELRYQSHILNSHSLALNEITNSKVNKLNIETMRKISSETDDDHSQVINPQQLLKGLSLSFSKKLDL
# B1: S. cerevisiae Csm1 full-length (natural protein, UniProt P25651 1-190, looked up)
# chain: MDPLTVYKNSVKQQIDSADLLVANLVNENFVLSEKLDTKATEIKQLQKQIDSLNAQVKELKTQTSQQAENSEVIKDLYEYLCNVRVHKSYEDDSGLWFDISQGTHSGGSSDDYSIMDYKLGFVKGQAQVTEVIYAPVLKQRSTEELYSLQSKLPEYLFETLSFPLSSLNQFYNKIAKSLNKKREKKDETE
# B2: Csm1 1-181 (domain or fragment, S. cerevisiae, UniProt P25651 1-181, looked up)
# chain: MDPLTVYKNSVKQQIDSADLLVANLVNENFVLSEKLDTKATEIKQLQKQIDSLNAQVKELKTQTSQQAENSEVIKDLYEYLCNVRVHKSYEDDSGLWFDISQGTHSGGSSDDYSIMDYKLGFVKGQAQVTEVIYAPVLKQRSTEELYSLQSKLPEYLFETLSFPLSSLNQFYNKIAKSLNK
# B3: Mtw1 (subunit of the purified MIND complex) (natural protein, S. cerevisiae, UniProt P39731 1-289, looked up)
# chain: MSAPTMRSTSILTEHLGYPPISLVDDIINAVNEIMYKCTAAMEKYLLSKSKIGEEDYGEEIKSGVAKLESLLENSVDKNFDKLELYVLRNVLRIPEEYLDANVFRLENQKDLVIVDENELKKSEEKLREKVNDVELAFKKNEMLLKRVTKVKRLLFTIRGFKQKLNELLKCKDDVQLQKILESLKPIDDTMTLLTDSLRKLYVDSESTSSTEEVEALLQRLKTNGKQNNKDFRTRYIDIRTNNVLRKLGLLGDKEDEKQSAKPDARTQAGDIVSIDIEEPQLDLLDDVL
# What was measured:
# [1] = target: Pcs1 85-222 (S. pombe) (UniProt O13684); assay: AUC
# [2] = target: S. pombe Pcs1 full-length (S. pombe) (UniProt O13684); assay: AUC
# Chain of S. pombe Pcs1 full-length (S. pombe) (O13684 whole entry): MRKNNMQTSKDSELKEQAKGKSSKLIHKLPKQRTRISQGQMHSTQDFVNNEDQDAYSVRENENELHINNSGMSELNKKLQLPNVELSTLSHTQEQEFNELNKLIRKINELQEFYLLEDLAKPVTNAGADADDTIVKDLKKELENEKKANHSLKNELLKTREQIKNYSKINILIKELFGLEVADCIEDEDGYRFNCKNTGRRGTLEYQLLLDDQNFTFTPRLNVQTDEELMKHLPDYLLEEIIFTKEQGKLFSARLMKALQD
# [3] = target: B1; assay: AUC
# [4] = target: B2; assay: AUC
# [5] = target: S. pombe Pcs1 full-length (S. pombe) (UniProt O13684); assay: AUC; remark: listed apart in the source
# [6] = target: the molecule itself; assay: AUC
# [7] = target: T1, Dsn1 (subunit of the purified MIND …); assay: co-purification of a recombinant complex
# [8] = target: B3; assay: co-purification of a recombinant complex
molecule,measurement,setting,value
Pcs1 85-222 (from UniProt O13684 85-222) (domain or fragment),stoichiometry N,[1],2
S. pombe Pcs1 full-length (from UniProt O13684 1-261) (natural protein),stoichiometry N,[2],2
"Lrs4 1-130 (domain or fragment, S. cerevisiae, UniProt Q04087 1-130, looked up) MTTLLQLLSNYYKAKLDSERIYNEYVQSQYEFASLDKLNNNKGDPKKVVDETLFLQRQIAQLNKQLQLSFQENEKLLSVQKNQKALYQSKLSSKDAFIDDLKLKLKVEQISVDKHNKERTPSTGRDEQQR",stoichiometry N,[3],4 copies of Csm1 in the complex and 2 copies of Lrs4 in the complex
"TTLLQLLSNYYKAKLDSERIYNEYVQSQY (peptide, UniProt Q04087 2-30, looked up) [peptide containing Lrs4 residues 2-30]",stoichiometry N,[4],4 copies of Csm1 in the complex and 2 copies of Lrs4 in the complex
Mde4 1-77 (domain or fragment) MSTISTSTDSKLDNLGLSVTSRRNQILFYLSKALNLAHLLRSDSLQKSFLDALKQSATDSELLHKNLDEIKFLQNEK,stoichiometry N (copies of Mde4 in the complex),[5],2
same,stoichiometry N (copies of Pcs1 in the complex),[5],4
Mde4 full-length (natural protein) MSTISTSTDSKLDNLGLSVTSRRNQILFYLSKALNLAHLLRSDSLQKSFLDALKQSATDSELLHKNLDEIKFLQNEKLNNEKLLEQEQNEANDYRLKVERLEHKISDYVQEINSLNSQLQIQKSNPEKHEDAVSQNRLRGSLDTVSSPSKTHKANKDEKATRLHLIIANLKKALKEKDAEVLNLQSHVSSKESELDRFKIKLETEESNWKVRLQVLESKLATQDRKLRMQKKSTERKSLLVSPRVSSPKLFSPSKQAIMGTRQPNATSGSPLSVTPFLQKTSTSIGLSSSPPQSSPSAQSSQPFSRDKYPHSMTVSPSNARYLKKHLDDTIPSNVSDINHNDHLKIPQSPSSLSPSKIPIRKKRKLKDTVSNCEFTEEDSESSFLLETIQPTKSTLRRSISPLKKRNDEINELKKGFTMKK,stoichiometry N (copies of Mde4 in the complex),[5],2
same,stoichiometry N (copies of Pcs1 in the complex),[5],4
"Lrs4 1-102 (domain or fragment, S. cerevisiae, UniProt Q04087 1-102, looked up) MTTLLQLLSNYYKAKLDSERIYNEYVQSQYEFASLDKLNNNKGDPKKVVDETLFLQRQIAQLNKQLQLSFQENEKLLSVQKNQKALYQSKLSSKDAFIDDLK",stoichiometry N,[3],4 copies of Csm1 in the complex and 2 copies of Lrs4 in the complex
B1,stoichiometry N,[6],2
"Csm1 69-190 (domain or fragment, S. cerevisiae, UniProt P25651 69-190, looked up) ENSEVIKDLYEYLCNVRVHKSYEDDSGLWFDISQGTHSGGSSDDYSIMDYKLGFVKGQAQVTEVIYAPVLKQRSTEELYSLQSKLPEYLFETLSFPLSSLNQFYNKIAKSLNKKREKKDETE",stoichiometry N,[6],2
B2,stoichiometry N,[6],2
"Lrs4 full-length (natural protein, S. cerevisiae, UniProt Q04087 1-347, looked up) MTTLLQLLSNYYKAKLDSERIYNEYVQSQYEFASLDKLNNNKGDPKKVVDETLFLQRQIAQLNKQLQLSFQENEKLLSVQKNQKALYQSKLSSKDAFIDDLKLKLKVEQISVDKHNKERTPSTGRDEQQRNSKAAHTSKPTIHLLSPIVNRDKPNNQTNDRGGNDPDSPTSQRRSRGLRSLLSSGKNTIFDSISKNLDDEINENAHIRNDTTSSKIAGKSPSRLSALQKSPELRKERNNMILKEHILRSKDDQNITSSRKLDNIELSSIGDSTAMTSRSSTVNANDILGNEENDGITKLKRVNKLTSSPVKRDCSTNKKRKLTKQRIATLPNSDEELSNNLNVDEFV",stoichiometry N,[3],4 copies of Csm1 in the complex and 2 copies of Lrs4 in the complex
Mde4 1-231 (domain or fragment) MSTISTSTDSKLDNLGLSVTSRRNQILFYLSKALNLAHLLRSDSLQKSFLDALKQSATDSELLHKNLDEIKFLQNEKLNNEKLLEQEQNEANDYRLKVERLEHKISDYVQEINSLNSQLQIQKSNPEKHEDAVSQNRLRGSLDTVSSPSKTHKANKDEKATRLHLIIANLKKALKEKDAEVLNLQSHVSSKESELDRFKIKLETEESNWKVRLQVLESKLATQDRKLRMQK,stoichiometry N (copies of Mde4 in the complex),[5],2
same,stoichiometry N (copies of Pcs1 in the complex),[5],4
B3,binding result,[7],binds
"Nnf1 (subunit of the purified MIND complex) (natural protein, S. cerevisiae, UniProt P47149 1-201, looked up) MVNSHGIRYIRLKQVFNRALDQSISKLQSWDKVSSCFPQYVNSKQGAINVANCQRQLTEFWTELCQREFKEIMEERNVEQKLNELDELILEAKERYTDRDQDEVNKGPAIDELSSKELVECHLYSQRMHAIHEIDERLAKVNEMNDQLAQELKDLETQVEVEKNEIGKMYDEYLGSHTDQPANVLLVQSLNDMVLELKENY",binding result,[8],binds
Mde4 1-125 (domain or fragment) MSTISTSTDSKLDNLGLSVTSRRNQILFYLSKALNLAHLLRSDSLQKSFLDALKQSATDSELLHKNLDEIKFLQNEKLNNEKLLEQEQNEANDYRLKVERLEHKISDYVQEINSLNSQLQIQKSN,stoichiometry N (copies of Mde4 in the complex),[5],2
same,stoichiometry N (copies of Pcs1 in the complex),[5],4
